According to article PMC9956121:
Numbering of substitutions follows the chain as printed. In names and notes the source's numbering stands.

B1: human TAPBPR (TAP binding protein, related), luminal domain R105K; K211R; R270Q (protein)
chain: KPHPAEGQWRAVDVVLDCFLAKDGAHRGALASSEDRARASLVLKQVPVLDDGSLEDFTDFQGGTLAQDDPPIIFEASVDLVQIPQAEALLHADSSGKEVTCEISKYFLQMTETTVKTAAWFMANMQVSGGGPSISLVMKTPRVTKNEALWHPTLNLPLSPQGTVRTAVEFQVMTQTQSLSFLLGSSASLDCGFSMAPGLDLISVEWRLQHRGRGQLVYSWTAGQGQAVRKGATLEPAQLGMARDASLTLPGLTIQDEGTYICQITTSLYQAQQIIQLNIQASPKVRLSLANEALLPTLICDIAGYYPLDVVVTWTREELGGSPAQVSGASFSSLRQSVAGTYSISSSLTAEPGSAGATYTCQVTHISLEEPLGASTQVVPPERR
B2: human TAPBPR (TAP binding protein, related), luminal domain S104F; K211L; R270Q (protein)
chain: B1 chain with S104F, K105R, R211L
B3: human TAPBPR (TAP binding protein, related), luminal domain K211R; R270Q (protein)
chain: B1 chain with K105R

Columns and labels:
[1] = target: acetyl-6-formylpterin-loaded MR1 C262S/hβ2m, P61769; assay: SPR; settings: chain shown with the change;; parent: est. 2.0; read off a plot
[2] = target: peptide-loaded HLA-A*02:01/hβ2m (photolabile peptide KILGFVFJV); assay: SPR; settings: chain shown with the change;; parent: est. 0.98; read off a plot

Row | Binder | Kd (Log10 KD (µM)) [1] | Kd (Log10 KD (µM)) [2]
1 | B1 | 1.8 | 
2 | B2 |  | 0.09
3 | B3 |  | 0.1
